In the test the target is vascular endothelial growth factor (VEGF) (human) (UniProt P15692). Nature of the test: cell-based or functional assay.
UniProt P15692, sequence (P15692 other isoform, or with tags, fused parts or gaps limits assumed): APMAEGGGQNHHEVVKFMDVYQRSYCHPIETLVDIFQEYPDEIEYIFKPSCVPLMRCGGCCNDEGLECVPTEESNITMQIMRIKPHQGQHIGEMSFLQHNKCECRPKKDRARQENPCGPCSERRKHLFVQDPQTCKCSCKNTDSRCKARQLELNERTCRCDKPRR

In turn, KH903 (Fc fusion) yielded a viability of HUVECs 72 h after infection with 30 MOI dE1-k35/KH903 (MTT assay), decrease against non-treated group of 53%.
